This note sets out measurements from patent US20170305994A1.

Values joined by “and” are separate entries in the source; they are usually repeats but may differ in a detail not shown here. Equal values may be shown once. Read-outs that look alike come from different tables or passages of the source.

Assay [1] addresses human DR3 with the death domain deleted (ΔM339-P417 of SEQ ID NO:1), expressed on CHOK1SV cells (human) (UniProt Q93038). Kind of assay: flow cytometry competition: Fab vs TL1A on hDR3-expressing CHO cells (isotype control; IC50 cell: No inhib). Background: Flow cytometry measures light scatter and fluorescence of single cells or particles in a stream.
Assay [2] addresses T1, human DR3 (full length, on cells) (human) (UniProt Q93038).
T1 sequence: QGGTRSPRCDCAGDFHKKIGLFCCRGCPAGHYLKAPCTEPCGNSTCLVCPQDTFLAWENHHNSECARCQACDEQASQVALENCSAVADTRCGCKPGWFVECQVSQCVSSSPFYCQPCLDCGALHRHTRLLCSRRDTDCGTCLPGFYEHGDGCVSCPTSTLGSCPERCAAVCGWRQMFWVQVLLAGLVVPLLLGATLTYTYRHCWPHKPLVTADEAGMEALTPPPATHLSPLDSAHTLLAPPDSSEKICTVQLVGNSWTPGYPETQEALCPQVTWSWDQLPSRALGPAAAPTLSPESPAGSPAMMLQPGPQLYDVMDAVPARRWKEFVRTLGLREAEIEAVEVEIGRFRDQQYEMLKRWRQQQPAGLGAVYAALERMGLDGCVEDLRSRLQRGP
The experiment in a line: cell-based or functional assay.

For assay [3], the target named is T1, human DR3 (full length, on cells) (human). The experiment in a line: flow cytometry on CD3/CD28-stimulated human CD4+ T cells (isotype control).
The target in assay [4] is TL1A (R&D Systems) (UniProt O95150). The experiment in a line: cell-based or functional assay.
Chain of TL1A (R&D Systems) (O95150 72-251 limits assumed): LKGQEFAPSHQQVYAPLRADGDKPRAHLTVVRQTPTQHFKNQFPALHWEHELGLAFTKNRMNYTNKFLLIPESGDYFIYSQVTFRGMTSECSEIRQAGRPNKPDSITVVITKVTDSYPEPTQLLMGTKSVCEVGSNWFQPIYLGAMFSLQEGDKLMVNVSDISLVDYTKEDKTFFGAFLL
For assay [5] the target is unchanged. Kind of assay: cell-based or functional assay. The source holds these as a separate data set.

0158 (Hz-aTNP isotype control Fab): the max percentage inhibition in assay [1] turned out to be 10%. Further, in assay [2], the max % inhibition of TNFalpha, average (n 8) was -1.8%; the max % inhibition of TNFalpha, donor 1 stood at 1.24%; the max % inhibition of TNFalpha, donor 2 amounted to 0.75%.

In assay [3], IgG1 isotype (antibody) returned a Median Fluorescent Intensity of 222 and a Staining index (MFI Ab/MFI Isotype) of 1.

With “MAB7441 (R&D Systems), TL1A specific antibody”, the fold response, DR3 reporter, TL1A + 2.5 microg/ml MAb7441 in the assay with TL1A (R&D Systems) [4] is 2.3 fold and 2 fold and 1.8 fold; in the assay with TL1A (R&D Systems) [5], 3.7 fold.
